# From publication PMC5074368
# Key:
# [1] = molecular target: Dab2 in the prey vector pVP16 (UniProt P98082); experiment: mammalian two-hybrid assay; conditions: n = 5; parent: est. 100; read off a plot
# [2] = molecular target: TOM1 in the prey vector pVP16 (UniProt O60784); experiment: mammalian two-hybrid assay; conditions: n = 3; parent: est. 100; read off a plot
# [3] = molecular target: F-actin (cellular actin filaments of RPE cells), P60709; experiment: cell fractionation into supernatant and F-actin-enriched pellet, quantitative immunoblotting; conditions: chain shown with the change, n = 3, parent: est. 1.3, read off a plot
percent of parent (% wildtype control) [1],percent of parent (% wildtype control) [2],other: pellet:supernatant (P:S) ratio [3],Molecule
66,73,,"Myosin VI globular tail (amino acids 1036–1294), wild type, in the bait vector pM E1251A"
88,87,,"Myosin VI globular tail (amino acids 1036–1294), wild type, in the bait vector pM E1254A"
260,110,,"Myosin VI globular tail (amino acids 1036–1294), wild type, in the bait vector pM I1252A"
60,99,,"Myosin VI globular tail (amino acids 1036–1294), wild type, in the bait vector pM R1255A"
,,1,"GFP-tagged full-length myosin VI-NI, wild type, Q9UM54-1 I1252A (protein) MEDGKPVWAPHPTDGFQMGNIVDIGPDSLTIEPLNQKGKTFLALINQVFPAEEDSKKDVEDNCSLMYLNEATLLHNIKVRYSKDRIYTYVANILIAVNPYFDIPKIYSSEAIKSYQGKSLGTRPPHVFAIADKAFRDMKVLKMSQSIIVSGESGAGKTENTKFVLRYLTESYGTGQDIDDRIVEANPLLEAFGNAKTVRNNNSSRFGKFVEIHFNEKSSVVGGFVSHYLLEKSRICVQGKEERNYHIFYRLCAGASEDIREKLHLSSPDNFRYLNRGCTRYFANKETDKQILQNRKSPEYLKAGSMKDPLLDDHGDFIRMCTAMKKIGLDDEEKLDLFRVVAGVLHLGNIDFEEAGSTSGGCNLKNKSAQSLEYCAELLGLDQDDLRVSLTTRVMLTTAGGTKGTVIKVPLKVEQANNARDALAKTVYSHLFDHVVNRVNQCFPFETSSYFIGVLDIAGFEYFEHNSFEQFCINYCNEKLQQFFNERILKEEQELYQKEGLGVNEVHYVDNQDCIDLIEAKLVGILDILDEENRLPQPSDQHFTSAVHQKHKDHFRLTIPRKSKLAVHRNIRDDEGFIIRHFAGAVCYETTQFVEKNNDALHMSLESLICESRDKFIRELFESSTNNNKDTKQKAGKLSFISVGNKFKTQLNLLLDKLRSTGASFIRCIKPNLKMTSHHFEGAQILSQLQCSGMVSVLDLMQGGYPSRASFHELYNMYKKYMPDKLARLDPRLFCKALFKALGLNENDYKFGLTKVFFRPGKFAEFDQIMKSDPDHLAELVKRVNHWLTCSRWKKVQWCSLSVIKLKNKIKYRAEACIKMQKTIRMWLCKRRHKPRIDGLVKVGTLKKRLDKFNEVVSVLKDGKPEMNKQIKNLEISIDTLMAKIKSTMMTQEQIQKEYDALVKSSEELLSALQKKKQQEEEAERLRRIQEEMEKERKRREEDEKRRRKEEEERRMKLEMEAKRKQEEEERKKREDDEKRIQAEVEAQLARQKEEESQQQAVLEQERRDRELALRIAQSEAELISDEAQADLALRRNDGTRPKMTPEQMAKEMSEFLSRGPAVLATKAAAGTKKYDLSKWKYAELRDTINTSCDIELLAACREEFHRRLKVYHAWKSKNKKRNTETEQRAPKSVTDYDFAPFLNNSPQQNPAAQIPARQREIEMNRQQRFFRIPFIRPADQYKDPQSKKKGWWYAHFDGPWIARQMELHPDKPPILLVAGKDDMEMCELNLEETGLTRKRGAEILPRQFEEAWERCGGIQYLQNAIESRQARPTYATAMLQSLLK"

# Further lines, the molecule ahead of its results:
Molecule,percent of parent (% wildtype control) [1],percent of parent (% wildtype control) [2],other: pellet:supernatant (P:S) ratio [3]
"GFP-tagged full-length myosin VI-NI, wild type, Q9UM54-1 W1253A (protein) MEDGKPVWAPHPTDGFQMGNIVDIGPDSLTIEPLNQKGKTFLALINQVFPAEEDSKKDVEDNCSLMYLNEATLLHNIKVRYSKDRIYTYVANILIAVNPYFDIPKIYSSEAIKSYQGKSLGTRPPHVFAIADKAFRDMKVLKMSQSIIVSGESGAGKTENTKFVLRYLTESYGTGQDIDDRIVEANPLLEAFGNAKTVRNNNSSRFGKFVEIHFNEKSSVVGGFVSHYLLEKSRICVQGKEERNYHIFYRLCAGASEDIREKLHLSSPDNFRYLNRGCTRYFANKETDKQILQNRKSPEYLKAGSMKDPLLDDHGDFIRMCTAMKKIGLDDEEKLDLFRVVAGVLHLGNIDFEEAGSTSGGCNLKNKSAQSLEYCAELLGLDQDDLRVSLTTRVMLTTAGGTKGTVIKVPLKVEQANNARDALAKTVYSHLFDHVVNRVNQCFPFETSSYFIGVLDIAGFEYFEHNSFEQFCINYCNEKLQQFFNERILKEEQELYQKEGLGVNEVHYVDNQDCIDLIEAKLVGILDILDEENRLPQPSDQHFTSAVHQKHKDHFRLTIPRKSKLAVHRNIRDDEGFIIRHFAGAVCYETTQFVEKNNDALHMSLESLICESRDKFIRELFESSTNNNKDTKQKAGKLSFISVGNKFKTQLNLLLDKLRSTGASFIRCIKPNLKMTSHHFEGAQILSQLQCSGMVSVLDLMQGGYPSRASFHELYNMYKKYMPDKLARLDPRLFCKALFKALGLNENDYKFGLTKVFFRPGKFAEFDQIMKSDPDHLAELVKRVNHWLTCSRWKKVQWCSLSVIKLKNKIKYRAEACIKMQKTIRMWLCKRRHKPRIDGLVKVGTLKKRLDKFNEVVSVLKDGKPEMNKQIKNLEISIDTLMAKIKSTMMTQEQIQKEYDALVKSSEELLSALQKKKQQEEEAERLRRIQEEMEKERKRREEDEKRRRKEEEERRMKLEMEAKRKQEEEERKKREDDEKRIQAEVEAQLARQKEEESQQQAVLEQERRDRELALRIAQSEAELISDEAQADLALRRNDGTRPKMTPEQMAKEMSEFLSRGPAVLATKAAAGTKKYDLSKWKYAELRDTINTSCDIELLAACREEFHRRLKVYHAWKSKNKKRNTETEQRAPKSVTDYDFAPFLNNSPQQNPAAQIPARQREIEMNRQQRFFRIPFIRPADQYKDPQSKKKGWWYAHFDGPWIARQMELHPDKPPILLVAGKDDMEMCELNLEETGLTRKRGAEILPRQFEEIAERCGGIQYLQNAIESRQARPTYATAMLQSLLK",,,2.2
"GFP-tagged full-length myosin VI-NI, wild type, Q9UM54-1 E1254A (protein) MEDGKPVWAPHPTDGFQMGNIVDIGPDSLTIEPLNQKGKTFLALINQVFPAEEDSKKDVEDNCSLMYLNEATLLHNIKVRYSKDRIYTYVANILIAVNPYFDIPKIYSSEAIKSYQGKSLGTRPPHVFAIADKAFRDMKVLKMSQSIIVSGESGAGKTENTKFVLRYLTESYGTGQDIDDRIVEANPLLEAFGNAKTVRNNNSSRFGKFVEIHFNEKSSVVGGFVSHYLLEKSRICVQGKEERNYHIFYRLCAGASEDIREKLHLSSPDNFRYLNRGCTRYFANKETDKQILQNRKSPEYLKAGSMKDPLLDDHGDFIRMCTAMKKIGLDDEEKLDLFRVVAGVLHLGNIDFEEAGSTSGGCNLKNKSAQSLEYCAELLGLDQDDLRVSLTTRVMLTTAGGTKGTVIKVPLKVEQANNARDALAKTVYSHLFDHVVNRVNQCFPFETSSYFIGVLDIAGFEYFEHNSFEQFCINYCNEKLQQFFNERILKEEQELYQKEGLGVNEVHYVDNQDCIDLIEAKLVGILDILDEENRLPQPSDQHFTSAVHQKHKDHFRLTIPRKSKLAVHRNIRDDEGFIIRHFAGAVCYETTQFVEKNNDALHMSLESLICESRDKFIRELFESSTNNNKDTKQKAGKLSFISVGNKFKTQLNLLLDKLRSTGASFIRCIKPNLKMTSHHFEGAQILSQLQCSGMVSVLDLMQGGYPSRASFHELYNMYKKYMPDKLARLDPRLFCKALFKALGLNENDYKFGLTKVFFRPGKFAEFDQIMKSDPDHLAELVKRVNHWLTCSRWKKVQWCSLSVIKLKNKIKYRAEACIKMQKTIRMWLCKRRHKPRIDGLVKVGTLKKRLDKFNEVVSVLKDGKPEMNKQIKNLEISIDTLMAKIKSTMMTQEQIQKEYDALVKSSEELLSALQKKKQQEEEAERLRRIQEEMEKERKRREEDEKRRRKEEEERRMKLEMEAKRKQEEEERKKREDDEKRIQAEVEAQLARQKEEESQQQAVLEQERRDRELALRIAQSEAELISDEAQADLALRRNDGTRPKMTPEQMAKEMSEFLSRGPAVLATKAAAGTKKYDLSKWKYAELRDTINTSCDIELLAACREEFHRRLKVYHAWKSKNKKRNTETEQRAPKSVTDYDFAPFLNNSPQQNPAAQIPARQREIEMNRQQRFFRIPFIRPADQYKDPQSKKKGWWYAHFDGPWIARQMELHPDKPPILLVAGKDDMEMCELNLEETGLTRKRGAEILPRQFEEIWARCGGIQYLQNAIESRQARPTYATAMLQSLLK",,,0.97
"GFP-tagged full-length myosin VI-NI, wild type, Q9UM54-1 R1255A (protein) MEDGKPVWAPHPTDGFQMGNIVDIGPDSLTIEPLNQKGKTFLALINQVFPAEEDSKKDVEDNCSLMYLNEATLLHNIKVRYSKDRIYTYVANILIAVNPYFDIPKIYSSEAIKSYQGKSLGTRPPHVFAIADKAFRDMKVLKMSQSIIVSGESGAGKTENTKFVLRYLTESYGTGQDIDDRIVEANPLLEAFGNAKTVRNNNSSRFGKFVEIHFNEKSSVVGGFVSHYLLEKSRICVQGKEERNYHIFYRLCAGASEDIREKLHLSSPDNFRYLNRGCTRYFANKETDKQILQNRKSPEYLKAGSMKDPLLDDHGDFIRMCTAMKKIGLDDEEKLDLFRVVAGVLHLGNIDFEEAGSTSGGCNLKNKSAQSLEYCAELLGLDQDDLRVSLTTRVMLTTAGGTKGTVIKVPLKVEQANNARDALAKTVYSHLFDHVVNRVNQCFPFETSSYFIGVLDIAGFEYFEHNSFEQFCINYCNEKLQQFFNERILKEEQELYQKEGLGVNEVHYVDNQDCIDLIEAKLVGILDILDEENRLPQPSDQHFTSAVHQKHKDHFRLTIPRKSKLAVHRNIRDDEGFIIRHFAGAVCYETTQFVEKNNDALHMSLESLICESRDKFIRELFESSTNNNKDTKQKAGKLSFISVGNKFKTQLNLLLDKLRSTGASFIRCIKPNLKMTSHHFEGAQILSQLQCSGMVSVLDLMQGGYPSRASFHELYNMYKKYMPDKLARLDPRLFCKALFKALGLNENDYKFGLTKVFFRPGKFAEFDQIMKSDPDHLAELVKRVNHWLTCSRWKKVQWCSLSVIKLKNKIKYRAEACIKMQKTIRMWLCKRRHKPRIDGLVKVGTLKKRLDKFNEVVSVLKDGKPEMNKQIKNLEISIDTLMAKIKSTMMTQEQIQKEYDALVKSSEELLSALQKKKQQEEEAERLRRIQEEMEKERKRREEDEKRRRKEEEERRMKLEMEAKRKQEEEERKKREDDEKRIQAEVEAQLARQKEEESQQQAVLEQERRDRELALRIAQSEAELISDEAQADLALRRNDGTRPKMTPEQMAKEMSEFLSRGPAVLATKAAAGTKKYDLSKWKYAELRDTINTSCDIELLAACREEFHRRLKVYHAWKSKNKKRNTETEQRAPKSVTDYDFAPFLNNSPQQNPAAQIPARQREIEMNRQQRFFRIPFIRPADQYKDPQSKKKGWWYAHFDGPWIARQMELHPDKPPILLVAGKDDMEMCELNLEETGLTRKRGAEILPRQFEEIWEACGGIQYLQNAIESRQARPTYATAMLQSLLK",,,1.2
